FireProtDB (doi:10.1021/bi952930e)

B1: Ribonuclease, P00648 (parent)
chain: MMKMEGIALKKRLSWISVCLLVLVSAAGMLFSTAAKTETSSHKAHTEAQVINTFDGVADYLQTYHKLPDNYITKSEAQALGWVASKGNLADVAPGKSIGGDIFSNREGKLPGKSGRTWREADINYTSGFRNSDRILYSSDWLIYKTTDHYQTFTKIR

Variants of: B1
Conditions: Bacillus amyloliquefaciens, pH 6.3, 25 °C, Urea, MES 100 mM, reversible: yes, structure 1BNI, whole UniProt chain shown

Variant	ddG of mutation (higher = less stable) (Fluorescence) [kcal/mol]	denaturant m value (Fluorescence) [kcal/mol/M]	denaturant midpoint (higher = more stable) (Fluorescence) [M]	ddG of mutation (higher = less stable) (CD) [kcal/mol]	denaturant m value (CD) [kcal/mol/M]	denaturant midpoint (higher = more stable) (CD) [M]
R130Q	2.05	2.28	3.51			
R130K	4.13	1.68	2.43			
R116S	2.72	1.86	3.16			
R116K				3.13	1.89	2.94
R116M	2.12	2.14	3.47			
D140N	4.11	1.99	2.44			
D122N	4.8	1.69	2.08			
